Assay results as given in patent US11932845B2, “Microorganisms and methods for production of 4-hydroxybutyrate, 1,4-butanediol and related compounds” (priority 2012, dated 2024).

Tests used:
[1] = test system: branched chain alpha-ketoacid decarboxylase (BCKA); settings: decarboxylation; cited from earlier work
[2] = test system: L(+)-lactate dehydrogenase from A. eutrophus; settings: compared with that on pyruvate; cited from earlier work
[3] = target: T1, L(+)-lactate dehydrogenase from rabbit muscle (Oryctolagus cuniculus, UniProt P13491); settings: compared with that on pyruvate; cited from earlier work
T1 construct: host or cells: rabbit muscle

[4] = test system: D(−)-lactate dehydrogenase from L. leichmanii; settings: compared with that on pyruvate; cited from earlier work
[5] = Minohara et al., 2002; read-out: Km for O2; cited from earlier work
[6] = target: T2, phosphotransbutyrylase (ptb) (Clostridium acetobutylicum, UniProt P58255); assay: PTB enzyme activity, butyryl-CoA to butyryl-phosphate, DTNB; assay type: biochemical, C. acetobutylicum; settings: extracts of cells with pZA33-0020-0021
T2 sequence (P58255 whole entry, looked up): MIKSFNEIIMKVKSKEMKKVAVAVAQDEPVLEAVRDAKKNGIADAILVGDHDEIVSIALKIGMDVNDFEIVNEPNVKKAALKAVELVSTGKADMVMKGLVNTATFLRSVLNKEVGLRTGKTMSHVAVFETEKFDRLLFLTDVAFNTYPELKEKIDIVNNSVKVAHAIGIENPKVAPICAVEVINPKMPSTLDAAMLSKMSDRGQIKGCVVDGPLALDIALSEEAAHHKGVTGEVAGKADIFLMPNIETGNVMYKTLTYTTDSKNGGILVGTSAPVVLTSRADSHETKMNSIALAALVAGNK
Method: The enzyme activity of PTB is measured in the direction of butyryl-CoA to butyryl-phosphate as described in Cary et al. J. Bacteriol. 170:4613-4618 (1988). It provides inorganic phosphate for the conversion, and follows the increase in free CoA with the reagent 5,5′-dithiobis-(2-nitrobenzoic acid), or DTNB. DTNB rapidly reacts with thiol groups such as free CoA to release the yellow-colored 2-nitro-5-mercaptobenzoic acid (TNB), which absorbs at 412 nm with a molar extinction coefficient of 14,140 M cm^−1. The assay buffer contained 150 mM potassium phosphate at pH 7.4, 0.1 mM DTNB, and 0.2 mM butyryl-CoA, and the reaction was started by addition of 2 to 50 μL cell extract. The enzyme activity of BK is measured in the direction of butyrate to butyryl-phosphate formation at the expense of ATP. The procedure is similar to the assay for acetate kinase previously described Rose et al., J. Biol. Chem. 211:737-756 (1954). […] This assay links conversion of ATP to ADP by acetate kinase to the linked conversion of ADP and phosphoenolpyruvate (PEP) to ATP and pyruvate by pyruvate kinase, followed by the conversion of pyruvate and NADH to lactate and NAD+ by lactate dehydrogenase. […] The reaction was started by adding 2 to 50 μL cell extract, and the reaction was monitored based on the decrease in absorbance at 340 nm indicating NADH oxidation.

BDO pathway = assay type: cell-based, E. coli; settings: host ECKh-432 with aldehyde dehydrogenase; 23G needle
[7] = test system: 4-HB to BDO conversion pathway; assay: Production of BDO from 10 mM 4-HB in recombinant E. coli strains; settings: for BDO: adhE2 in pZE13
Method: For the BDO production experiments, cat2 from Porphyromonas gingivalis W83 (gene 0034) was included on pZA33 for the conversion of 4-HB to 4-HB-CoA, while the candidate dehydrogenase genes were expressed on pZE13. The host strain was MG1655 lacI^Q. Along with the alcohol and aldehyde dehydrogenase candidates, we also tested the ability of CoA-dependent succinic semialdehyde dehydrogenases (sucD) to function in this step, due to the similarity of the substrates. Cells were grown to an OD of about 0.5 in LB medium supplemented with 10 mM 4-HB, induced with 1 mM IPTG, and culture broth samples taken after 24 hours and analyzed for BDO as described below.
Finally, the construct was tested for participation in the conversion of 4-HB to BDO. Host strains were transformed with the pZA33-0020-0021 construct described and pZE13-0002, and compared to use of cat2 in BDO production using the aerobic procedure used above in FIG. 5.

Alcohol dehydrogenase = Alcohol dehydrogenase (ADH) assay in the reductive direction, cell extracts; settings: cell extracts from MG1655 lacI^Q containing pZA33
Method: (§1) Alcohol (ADH) and aldehyde (ALD) dehydrogenase was assayed in the reductive direction using a procedure adapted from several literature sources (Durre et al., FEMS Microbiol. Rev. 17:251-262 (1995); Palosaari and Rogers, J. Bacteriol. 170:2971-2976 (1988) and Welch et al., Arch. Biochem. Biophys. 273:309-318 (1989). The oxidation of NADH is followed by reading absorbance at 340 nm every four seconds for a total of 240 seconds at room temperature. The reductive assays were performed in 100 mM MOPS (adjusted to pH 7.5 with KOH), 0.4 mM NADH, and from 1 to 50 μl of cell extract. The reaction is started by adding the following reagents: 100 μl of 100 mM acetaldehyde or butyraldehyde for ADH, or 100 μl of 1 mM acetyl-CoA or butyryl-CoA for ALD. The Spectrophotometer is quickly blanked and then the kinetic read is started. The resulting slope of the reduction in absorbance at 340 nm per minute, along with the molar extinction coefficient of NAD(P)H at 340 nM (6000) and the protein concentration of the extract, can be used to determine the specific activity.
(§2) Gene candidates for the 4-HB to BDO conversion pathway were next tested for activity when expressed in the E. coli host MG1655 lacI^Q. Recombinant strains containing each gene candidate expressed on pZA33 were grown in the presence of 0.25 mM IPTG for four hours at 37° C. to fully induce expression of the enzyme. Four hours after induction, cells were harvested and assayed for ADH and ALD activity as described above.

Aldehyde dehydrogenase = Aldehyde dehydrogenase (ALD) assay in the reductive direction, cell extracts; settings: cell extracts from MG1655 lacI^Q containing pZA33
Method: as §1, §2

## O=C(O)CCC(=O)C(=O)O [2-Oxoglutarate]
[1]
  activity relative to activity on other branched-chain substrates: 5%
[2]
  Activity (%) of L(+)-lactate dehydrogenase from A. eutrophus: 79.6%
[3]
  Activity (%) of L(+)-lactate dehydrogenase from rabbit muscle: 0.0%
[4]
  Activity (%) of D(−)-lactate dehydrogenase from L. leichmanii: 0.0%

## cytochrome bd oxidase: E. coli cytochrome d terminal oxidase, encoded by the cyd operon
[5]
  Km: 0.01 µM

B1: PTB: phosphotransbutyrylase (ptb) from C. acetobutylicum, gene 0020 (protein, UniProt P58255 1-301, looked up)
Phosphate butyryltransferase: T2 sequence (P58255 whole entry, looked up)
[6]
  specific activity of PTB: approximately 5 U/mg

B2: 0034: Gene ID 0034, cat2, Porphyromonas gingivalis W83, 4-hydroxybutyrate coenzyme A transferase (protein, listed as Porphyromonas gingivalis)
chain: MKDVLAEYASRIVSAEEAVKHIKNGERVALSHAAGVPQSCVDALVQQADLFQNVEIYHMLCLGEGKYMAPEMAPHFRHITNFVGGNSRKAVEENRADFIPVFFYEVPSMIRKDILHIDVAIVQLSMPDENGYCSFGVSCDYSKPAAESAHLVIGEINRQMPYVHGDNLIHISKLDYIVMADYPIYSLAKPKIGEVEEAIGRNCAELIEDGATLQLGIGAIPDAALLFLKDKKDLGIHTEMFSDGVVELVRSGVITGKKKTLHPGKMVATFLMGSEDVYHFIDKNPDVELYPVDYVNDPRVIAQNDNMVSINSCIEIDLMGQVVSECIGSKQFSGTGGQVDYVRGAAWSKNGKSIMAIPSTAKNGTASRIVPIIAEGAAVTTLRNEVDYVVTEYGIAQLKGKSLRQRAEALIAIAHPDFREELTKHLRKRFG
BDO pathway
  BDO and GBL levels: significantly higher than 2021n
[7]; Host Strain MG1655 lacI^Q
  BDO/OD: 0.042
[7]; Host Strain MG1655 lacI^Q, aerobic procedure
  BDO: 0.827 µM
[7]; Host Strain MG1655 ΔadhE lacI^Q
  BDO/OD: 0.166
[7]; Host Strain MG1655 ΔadhE lacI^Q, aerobic procedure
  BDO: 2.084 µM
[7]; with pZE13-0002, aerobic procedure
  BDO produced: 2 mM

B3: 0026: Gene ID 0026, bdhA, Clostridium acetobutylicum ATCC 824, Butanol dehydrogenase (protein, UniProt Q04944 1-389, looked up)
NADH-dependent butanol …: MLSFDYSIPTKVFFGKGKIDVIGEEIKKYGSRVLIVYGGGSIKRNGIYDRATAILKENNIAFYELSGVEPNPRITTVKKGIEICRENNVDLVLAIGGGSAIDCSKVIAAGVYYDGDTWDMVKDPSKITKVLPIASILTLSATGSEMDQIAVISNMETNEKLGVGHDDMRPKFSVLDPTYTFTVPKNQTAAGTADIMSHTFESYFSGVEGAYVQDGIAEAILRTCIKYGKIAMEKTDDYEARANLMWASSLAINGLLSLGKDRKWSCHPMEHELSAYYDITHGVGLAILTPNWMEYILNDDTLHKFVSYGINVWGIDKNKDNYEIAREAIKNTREYFNSLGIPSKLREVGIGKDKLELMAKQAVRNSGGTIGSLRPINAEDVLEIFKKSY
Alcohol dehydrogenase
  Alcohol dehydrogenase, Substrate Acetaldehyde: 0.0008 μmol min^−1 mg cell protein^−1
  Alcohol dehydrogenase, Substrate Butyraldehyde: 0.0024 μmol min^−1 mg cell protein^−1
Aldehyde dehydrogenase
  Aldehyde dehydrogenase, Substrate Acetyl-CoA: 0.0005 μmol min^−1 mg cell protein^−1
  Aldehyde dehydrogenase, Substrate Butyryl-CoA: 0 μmol min^−1 mg cell protein^−1
